Reference: US12479928B2, “Anti-cancer peptide” (Minerva Biotechnologies Corporation, priority 2014, dated 2025)
Where “and” joins values, the source holds several entries; their conditions need not be identical. Equal values may be shown once.

Tests used:
T47D breast cancer cells = test: Induced transition of breast cancer cells to a more metastatic state, RT-PCR of metastatic markers; format: cell-based, human
Description: In one particular experiment, T47D human breast cancer cells were cultured in standard RPMI media for 14 days with media changes every 48 hours and passed by trypsinization when approximately 75% confluent. The cells were then plated into 6-well plates and cultured in minimal stem cell media (see Example 1) that was supplemented with 4 nM NME7-AB. Media was changed every 48 hours. By about Day 4, some cells become detached from the surface and float. Media is carefully changed so as to retain the “floaters” as these are the cells that have the highest metastatic potential as evidence by RT-PCR measurement of metastatic markers. On Day 7 or 8, the floaters are harvested and counted. Samples are retained for RT-PCR measurement.
We have shown that NME7-AB promotes cancerous growth and causes cancer cells to accelerate to the highly metastatic cancer stem cell (CSC) state also called tumor initiating cells (TIC). Therefore, we conclude that NME7-X1 and an NME7 cleavage product that removes the DM10 domain also promote cancerous growth and causes cancer cells to accelerate to the highly metastatic cancer stem cell (CSC) state also called tumor initiating cells (TIC). In one example, NME7-AB was added to cancer cells in a serum-free media and in the absence of any other growth factors or cytokines. […] After 10 days cells were collected and analyzed by RT-PCR for expression of molecular markers of CSCs which were elevated by 10-200-times (FIGS. 11, 12). […]
A rho I kinase inhibitor, ROCi, ROCKi or Ri, was added to prevent the transformed cells from floating off the plate. Expression levels of various metastatic markers as well as pluripotent stem cell markers were measured for the parent cells and for the NME7-AB cultured cells.
T47D human breast cancer cells were cultured in standard RPMI media for 14 days with media changes every 48 hours and passed by trypsinization when approximately 75% confluent. […] On Day 7 or 8, the floaters are harvested and counted. […]

[1] = test system: T47D human breast cancer cells xenografted; test: Xenograft of NME7-AB cultured floater cells in nu/nu mice with daily NME7-AB injection; format: in vivo, female nu/nu athymic mice
Description: The freshly harvested floater metastatic cells were xenografted into the flank of female nu/nu athymic mice that have been implanted with 90-day slow release estrogen pellets. Floater cells were xenografted with 10,000, 1,000, 100 or 50 cells each. Half of the mice in each group of 6 were also injected daily with 32 nM NME7-AB near the original implantation site. The parent T47D cells that were cultured in RPMI media without NME7-AB were also implanted into mice at 6 million, 10,000 or 100 as controls. Mice implanted with the NME7-induced floater cells developed tumors even when as few as 50 cells were implanted. Mice that were implanted with the floater cells and that received daily injections of NME7-AB also developed remote tumors or remote metastases in various organs (FIG. 20-25). 11 out of the 12 mice, or 92%, that were injected with human NME7-AB after implantation of the NME7-AB cultured cancer cells developed tumors at the injection site. Only 7 out of the 12 mice, or 58%, that were not injected with human NME7-AB after implantation developed tumors. […] None of the mice that were not injected with NME7-AB developed multiple, visible tumors.
The freshly harvested floater metastatic cells are xenografted into the flank of female nu/nu athymic mice that have been implanted with 90-day slow release estrogen pellets. Floater cells were xenografted as 10,000, 1,000, 100 or 50 cells each. Half of the mice in each group of 6 were also injected daily with 32 nM NME7-AB near the original implantation site. The parent T47D cells that were cultured in RPMI media without NME7-AB were also implanted into mice as 6 million, 10,000 or 100 as controls. Mice implanted with the NME7-induced floater cells developed tumors even when as few as 50 cells were implanted. Mice that were implanted with the floater cells and that received daily injections of NME7-AB also developed remote tumors or remote metastases in various organs (FIG. 20-25). 11 out of the 12 mice, or 92%, that were injected with human NME7-AB after implantation of the NME7-AB cultured cancer cells, developed tumors at the injection site. Only 7 out of the 12 mice, or 58%, that were not injected with human NME7-AB after implantation developed tumors. 9 out of the 11 mice, or 82%, that got tumors and were injected with human NME7-AB developed multiple tumors remote from the injection site. None of the mice that were not injected with NME7-AB developed multiple, visible tumors.

[2] = test system: SK-OV3 ovarian cancer cell line; test: RT-PCR of metastatic markers after culture in NME7-AB, SK-OV3; format: cell-based, human; conditions: 72 or 144 hours
Excerpt: FIGS. 37A-37C show graphs of RT-PCR measurements of metastatic markers in cancer cells after being cultured in a serum-free media containing NME7-AB compared to the standard media.

B1: NME7-AB: recombinant human NME7 devoid of the DM10 domain, NDPK A and B domains, about 33 kDa monomer (protein)
chain: MEKTLALIKPDAISKAGEIIEIINKAGFTITKLKMMMLSRKEALDFHVDHQSRPFFNELIQFITTGPIIAMEILRDDAICEWKRLLGPANSGVARTDASESIRALFGTDGIRNAAHGPDSFASAAREMELFFPSSGGCGPANTAKFTNCTCCIVKPHAVSEGLLGKILMAIRDAGFEISAMQMFNMDRVNVEEFYEVYKGVVTEYHDMVTEMYSGPCVAMEIQQNNATKTFREFCGPADPEIARHLRPGTLRAIFGKTKIQNAVHCTDLPEDGLLEVQYFFKILDN
CXCR4 up-regulation (T47D breast cancer cells; 4 nM NME7-AB in minimal stem cell media, floaters Day 7 or 8): 40-200 times
elevation of molecular markers of CSCs (T47D breast cancer cells; 16 nM NME7-AB, after 10 days): 10-200 times
increase in expression of molecular markers such as CXCR4 (T47D breast cancer cells; serum-free media, within 7-10 days): more than 100 fold
number of implanted NME7-induced floater cells that developed tumors ([1]; cells pre-cultured in NME7-AB): ≤ 50 cells
mice that developed tumors at the injection site ([1]; injected daily with 32 nM NME7-AB, 11 out of 12 mice): 92%
mice that developed multiple tumors remote from the injection site ([1]; injected daily with NME7-AB, 9 out of 11 mice with tumors): 82% and 80%
engraftment rate of cancer cells cultured in NME7-AB ([1]; xenografted into test animals): over 90%
metastatic marker expression after culture in NME7-AB [2]: increase expression of metastatic markers CHD1, SOX2 and NME7-X1
